Source: the Immune Epitope Database (IEDB)
Values belong to the sequence of their own block, whether it stands above or below them.

Legend:
HLA-B*18:01 [1] = assay: IEDB peptide-MHC binding, purified MHC/competitive/radioactivity; filed as Kd, often an IC50 or EC50 that approximates it; ≥ and ≤ were set here for values at or beyond the usual limits of such assays
HLA-B*40:01 = assay: as above
HLA-B*40:02 = assay: as above
HLA-B*44:02 = assay: as above
HLA-B*44:03 = assay: as above
HLA-B*45:01 = assay: as above
HLA-B*15:01 [2] = assay: IEDB peptide-MHC binding, purified MHC/competitive/fluorescence; ≥ and ≤ were set here for values at or beyond the usual limits of such assays
HLA-A*68:02 [3] = assay: IEDB peptide-MHC binding, purified MHC/competitive/radioactivity; filed as Kd, often an IC50 or EC50 that approximates it; ≥ and ≤ were set here for values at or beyond the usual limits of such assays; conditions: source organism: Dengue virus 2 Jamaica/1409/1983
HLA-B*35:01 = assay: as above; conditions: source organism: Dengue virus 2 Jamaica/1409/1983
HLA-B*51:01 [4] = assay: as above; conditions: source organism: Dengue virus 2 Jamaica/1409/1983
HLA-B*53:01 = assay: as above; conditions: source organism: Dengue virus 2 Jamaica/1409/1983
HLA-B*58:01 [5] = assay: as above
HLA-B*07:02 = assay: IEDB peptide-MHC binding, purified MHC/direct/fluorescence; filed as Kd, often an IC50 or EC50 that approximates it; ≥ and ≤ were set here for values at or beyond the usual limits of such assays; conditions: source organism: Escherichia coli O157:H7
HLA-B*51:01 [6] = assay: as above; conditions: source organism: Escherichia coli O157:H7
HLA-A*02:01 [7] = assay: IEDB peptide-MHC binding, purified MHC/competitive/fluorescence; ≥ and ≤ were set here for values at or beyond the usual limits of such assays; conditions: source organism: Zaire ebolavirus
HLA-A*24:02 = assay: as above; conditions: source organism: Zaire ebolavirus
HLA-A*02:03 = assay: IEDB peptide-MHC binding, purified MHC/direct/fluorescence; filed as Kd, often an IC50 or EC50 that approximates it; ≥ and ≤ were set here for values at or beyond the usual limits of such assays; conditions: source organism: Zaire ebolavirus
HLA-A*02:11 = assay: as above; conditions: source organism: Zaire ebolavirus
HLA-A*02:12 = assay: as above; conditions: source organism: Zaire ebolavirus
HLA-A*02:16 = assay: as above; conditions: source organism: Zaire ebolavirus
HLA-A*02:19 = assay: as above; conditions: source organism: Zaire ebolavirus
HLA-A*03:01 = assay: as above; conditions: source organism: Zaire ebolavirus
HLA-A*68:02 [8] = assay: as above; conditions: source organism: Zaire ebolavirus
HLA-B*58:01 [9] = assay: as above; conditions: source organism: Ebola virus - Eckron (Zaire, 1976)
HLA-A*02:01 [10] = assay: IEDB peptide-MHC binding, purified MHC/competitive/fluorescence; filed as Kd, often an IC50 or EC50 that approximates it; ≥ and ≤ were set here for values at or beyond the usual limits of such assays; conditions: source organism: Zaire ebolavirus
HLA-A*26:01 = assay: as above; conditions: source organism: Zaire ebolavirus
HLA-A*69:01 = assay: as above; conditions: source organism: Zaire ebolavirus
HLA-B*15:01 [11] = assay: as above; conditions: source organism: Zaire ebolavirus
HLA-B*15:17 = assay: as above; conditions: source organism: Zaire ebolavirus
HLA-B*18:01 [12] = assay: as above; conditions: source organism: Zaire ebolavirus
HLA-B*27:03 = assay: as above; conditions: source organism: Zaire ebolavirus
HLA-B*39:01 [13] = assay: as above; conditions: source organism: Zaire ebolavirus
HLA-B*46:01 = assay: as above; conditions: source organism: Zaire ebolavirus
HLA-B*51:01 [14] = assay: as above; conditions: source organism: Zaire ebolavirus
HLA-A*29:02 = assay: as above; conditions: source organism: Giardia lamblia ATCC 50803
HLA-B*39:01 [15] = assay: IEDB peptide-MHC binding, purified MHC/direct/fluorescence; filed as Kd, often an IC50 or EC50 that approximates it; ≥ and ≤ were set here for values at or beyond the usual limits of such assays; conditions: source organism: Influenza A virus (A/kunke/1/71(H3N2))
HLA-B*48:01 = assay: as above; conditions: source organism: West Nile virus
[16] = source organism: Mammarenavirus machupoense
[17] = source organism: SARS coronavirus Tor2
[18] = source organism: Mammarenavirus whitewaterense
[19] = source organism: Zaire ebolavirus
[20] = source organism: Mammarenavirus brazilense
[21] = source organism: Mammarenavirus juninense
[22] = source organism: Mammarenavirus lassaense

Sequence: EEPAALLPL
Kd (HLA-B*18:01 [1]; [16]): 5.64 µM
Kd (HLA-B*40:01; [16]): 7.11 µM
Kd (HLA-B*40:02; [16]): 0.0571 µM
Kd (HLA-B*44:02; [16]): ≥ 39.9 µM
Kd (HLA-B*44:03; [16]): ≥ 41.2 µM
Kd (HLA-B*45:01; [16]): ≥ 23.4 µM

IC50 (HLA-B*15:01 [2]; source organism: Homo sapiens): 5.8 µM
Sequence: SYFTNMFATWSP

Sequence: MAAILAYTI
Kd (HLA-A*68:02 [3]): 0.00473 µM
Kd (HLA-B*35:01): 1.73 µM
Kd (HLA-B*51:01 [4]): 0.0101 µM
Kd (HLA-B*53:01): 0.0132 µM
Kd (HLA-B*58:01 [5]; source organism: Dengue virus 2 Jamaica/1409/1983): 0.00126 µM

Sequence: REMLAHAEET
Kd (HLA-B*18:01 [1]; [17]): 1.03 µM
Kd (HLA-B*40:01; [17]): 0.922 µM
Kd (HLA-B*40:02; [17]): 0.068 µM
Kd (HLA-B*44:02; [17]): 0.895 µM
Kd (HLA-B*44:03; [17]): 0.228 µM
Kd (HLA-B*45:01; [17]): 0.151 µM

Sequence: AEQSRIFEEL
Kd (HLA-B*18:01 [1]; [18]): ≥ 20.8 µM
Kd (HLA-B*40:01; [18]): 10.2 µM
Kd (HLA-B*40:02; [18]): 0.0168 µM
Kd (HLA-B*44:02; [18]): 0.0574 µM
Kd (HLA-B*44:03; [18]): 0.43 µM
Kd (HLA-B*45:01; [18]): 0.206 µM

Sequence: TEHSWNADL
Kd (HLA-B*18:01 [1]; [17]): 8.39 µM
Kd (HLA-B*40:01; [17]): 0.034 µM
Kd (HLA-B*40:02; [17]): 0.132 µM
Kd (HLA-B*44:02; [17]): 0.125 µM
Kd (HLA-B*44:03; [17]): 0.137 µM
Kd (HLA-B*45:01; [17]): 0.331 µM

Sequence: TEAFEKMVSL
Kd (HLA-B*18:01 [1]; [17]): 1.55 µM
Kd (HLA-B*40:01; [17]): 0.00352 µM
Kd (HLA-B*40:02; [17]): 0.0347 µM
Kd (HLA-B*44:02; [17]): 1.92 µM
Kd (HLA-B*44:03; [17]): 5.74 µM
Kd (HLA-B*45:01; [17]): 4.46 µM

Kd (HLA-B*07:02): 0.0015 µM
Kd (HLA-B*51:01 [6]): ≥ 20 µM
Sequence: LPQRHHIML

Sequence: VELKHFFFA
Kd (HLA-B*18:01 [1]; [17]): 1.71 µM
Kd (HLA-B*40:01; [17]): ≥ 29.8 µM
Kd (HLA-B*40:02; [17]): 0.103 µM
Kd (HLA-B*44:02; [17]): 15.6 µM
Kd (HLA-B*44:03; [17]): 2.63 µM
Kd (HLA-B*45:01; [17]): 0.0158 µM

Sequence: FVTLDGQQF
IC50 (HLA-A*02:01 [7]): ≥ 121 µM
IC50 (HLA-A*24:02): 17.6 µM
IC50 (HLA-B*15:01 [2]; [19]): 61.1 µM

Sequence: WMASVEPHW
Kd (HLA-B*58:01 [5]; source organism: Dengue virus 1 Brazil/97-11/1997): 0.0133 µM

Sequence: GETALALLL
Kd (HLA-B*18:01 [1]; [17]): ≥ 22.7 µM
Kd (HLA-B*40:01; [17]): 0.00122 µM
Kd (HLA-B*40:02; [17]): 0.00778 µM
Kd (HLA-B*44:02; [17]): 0.0314 µM
Kd (HLA-B*44:03; [17]): 0.0132 µM
Kd (HLA-B*45:01; [17]): 0.448 µM

Sequence: PDVGVLFGL
Kd (HLA-B*18:01 [1]; [16]): ≥ 44.1 µM
Kd (HLA-B*40:01; [16]): ≥ 76.1 µM
Kd (HLA-B*40:02; [16]): ≥ 22.8 µM
Kd (HLA-B*44:02; [16]): ≥ 77.9 µM
Kd (HLA-B*44:03; [16]): ≥ 78.1 µM
Kd (HLA-B*45:01; [16]): ≥ 25.1 µM

Sequence: LASAILNAHE
Kd (HLA-B*58:01 [5]; source organism: Dengue virus 4 Philippines/H241/1956): 0.983 µM

Sequence: PEDQGNPIVL
Kd (HLA-B*18:01 [1]; [20]): ≥ 39.3 µM
Kd (HLA-B*40:01; [20]): ≥ 30.6 µM
Kd (HLA-B*40:02; [20]): 10.5 µM
Kd (HLA-B*44:02; [20]): ≥ 70.2 µM
Kd (HLA-B*44:03; [20]): ≥ 70.1 µM
Kd (HLA-B*45:01; [20]): ≥ 70 µM

Sequence: LIVKTVLDH
IC50 (HLA-B*15:01 [2]; [19]): ≥ 73.9 µM

Sequence: WLQKIPLQW
Kd (HLA-A*02:03): ≥ 20 µM
Kd (HLA-A*02:11): ≥ 20 µM
Kd (HLA-A*02:12): ≥ 20 µM
Kd (HLA-A*02:16): ≥ 20 µM
Kd (HLA-A*02:19): ≥ 20 µM
Kd (HLA-A*03:01): ≥ 20 µM
Kd (HLA-A*68:02 [8]): ≥ 20 µM
Kd (HLA-B*58:01 [9]): 0.693 µM
Kd (HLA-A*02:01 [10]): ≥ 20 µM
Kd (HLA-A*26:01): ≥ 20 µM
Kd (HLA-A*69:01): ≥ 20 µM
Kd (HLA-B*15:01 [11]): ≥ 20 µM
Kd (HLA-B*15:17): ≥ 20 µM
Kd (HLA-B*18:01 [12]): ≥ 20 µM
Kd (HLA-B*27:03): ≥ 20 µM
Kd (HLA-B*39:01 [13]): ≥ 20 µM
Kd (HLA-B*46:01): ≥ 20 µM
Kd (HLA-B*51:01 [14]): ≥ 20 µM

Sequence: PPIPIWLLF
Kd (HLA-A*29:02): 0.197 µM

Sequence: HHAVPNGTL
Kd (HLA-B*39:01 [15]): 0.0521 µM

Sequence: RTIHHASAP
IC50 (HLA-A*02:01 [7]): ≥ 622 µM
IC50 (HLA-B*15:01 [2]; [19]): 36.4 µM

Sequence: VEYYPLLFIT
Kd (HLA-B*18:01 [1]; [17]): 8.28 µM
Kd (HLA-B*40:01; [17]): 5.12 µM
Kd (HLA-B*40:02; [17]): 0.0126 µM
Kd (HLA-B*44:02; [17]): ≥ 62 µM
Kd (HLA-B*44:03; [17]): 8.31 µM
Kd (HLA-B*45:01; [17]): 0.568 µM

Sequence: SEGVPDLLV
Kd (HLA-B*18:01 [1]; [17]): ≥ 77.5 µM
Kd (HLA-B*40:01; [17]): ≥ 29.1 µM
Kd (HLA-B*40:02; [17]): ≥ 37 µM
Kd (HLA-B*44:02; [17]): ≥ 37.1 µM
Kd (HLA-B*44:03; [17]): ≥ 20.9 µM
Kd (HLA-B*45:01; [17]): 13.9 µM

Sequence: HDLPLLCTL
Kd (HLA-B*18:01 [1]; [21]): 1.71 µM
Kd (HLA-B*40:01; [21]): 16.1 µM
Kd (HLA-B*40:02; [21]): 0.00852 µM
Kd (HLA-B*44:02; [21]): 9.82 µM
Kd (HLA-B*44:03; [21]): 19.1 µM
Kd (HLA-B*45:01; [21]): ≥ 74.6 µM

Sequence: GRLVTVNPF
Kd (HLA-B*48:01): ≥ 20 µM

Sequence: KEAYCQEFLL
Kd (HLA-B*18:01 [1]; [22]): ≥ 45.9 µM
Kd (HLA-B*40:01; [22]): 10.2 µM
Kd (HLA-B*40:02; [22]): 0.0337 µM
Kd (HLA-B*44:02; [22]): 1.26 µM
Kd (HLA-B*44:03; [22]): 5.01 µM
Kd (HLA-B*45:01; [22]): 6.68 µM
